The record followed here is paper PMC4938167, “Structural Insights into the Polyphyletic Origins of Glycyl tRNA Synthetases*^([image sbox.jpg])^♦” (The Journal of Biological Chemistry, 2016).

Data set [1] addresses T1, α-AaGlyRS (Aquifex aeolicus, UniProt O67081).
T1 construct: gene glyQ; alpha subunit alone of alpha2beta2 GlyRS; synthetic codon-optimised gene in pET-28, N-terminal His6 (His tag/TEV residues kept), E. coli BL21(DE3)
As to the kind of experiment: thermal shift assay, SYPRO Orange. It counts as binding. The following applies: 8 mM GSAd; reference Tm without ligand 83.2 °C; 25 mM NaH2PO4, 25 mM KCl, 10 mM MgCl2.

Data set [2] deals with the molecule itself. Put plainly: SEC-MALS; Superdex S-75 10/300 analytical column, 0.5 ml/min, DAWN Heleos-II and Optilab RI detectors; protein loaded after concentration to 15 mg/ml; one peak with 99.9% of the injected mass.
Substrate in data set [3]: NCC(=O)O
As to the kind of experiment: purified protein. It counts as biochemical, Aquifex aeolicus. The conditions noted are these: 0.5 mM ATP, 10 mM MgCl2, 50 mM Tris pH 8.0, 50 mM KCl, 45 °C, 40 μM enzyme, alpha subunit alone.

Turning to `NCC(=O)NS(=O)(=O)OC[C@H]1O[C@@H](n2cnc3c(N)ncnc32)[C@H](O)[C@@H]1O` [GSAd, 5′-O-[N-(L-glycyl)sulfamoyl] adenosine], in data set [1], the “Tm with 8 mM ligand” value was 92.3 °C.

B1: α-subunit of the α2β2 glycyl tRNA synthetase (GlyRS) from Aquifex aeolicus (enzyme)
chain: MYFQDIIMTLHKFWAEKGCLIWQPYDVEVGAGTMNPATFLKVLGKKPWNVAYVEPSRRPQDGRYGENPNRLQHYYQFQVILKPAPRNPQEIYLESLERLGINPLEHDIRFVEDDWESPTLGAWGLGWEVWLDGMEITQFTYFQQAGGLDLDEISVEITYGLERIAMYIQDKDSVFDIEWKEGITYGEIFKRSEWEWSKYNFELADTDMLFQVYEMFEKESKRMVEEGLIFPAYDYLLKCSHVFNILDARGAISVQERARYIRRMNNLAREIAKLYLQVFENVGAT
notes: Glycyl tRNA synthetase α-subunit, Aquifex aeolicus; synthetic cDNA (Genscript), codon-optimised for E. coli, in pET-28; No cleavage of the tag is described; The theoretical mass of the dimer is printed as 67.4 kDa; Crystals were soaked with the glycyl adenylate analog GSAd; also called α-AaGlyRS; α-subunit GlyRS; source: E. coli BL21(DE3), purified (heat treatment 75 °C, Ni2+-Sepharose, size …)
For B1, the “stoichiometry N” value in data set [2] turned out to be 2. Further, in data set [3], the Km came to 110 ± 16 µM and the kcat is 0.00023 s⁻¹.
